Experimental data taken from PMC9872521.

Substrate: NCCc1ccc(O)c(O)c1
Experiment: cells, lysate or membranes
Conditions: sodium inward-facing conformation favors substrates

B1: human dopamine transporter (hDAT) (Homo sapiens) (protein)
chain: MSKSKCSVGLMSSVVAPAKEPNAVGPKEVELILVKEQNGVQLTSSTLTNPRQSPVEAQDRETWGKKIDFLLSVIGFAVDLANVWRFPYLCYKNGGGAFLVPYLLFMVIAGMPLFYMELALGQFNREGAAGVWKICPILKGVGFTVILISLYVGFFYNVIIAWALHYLFSSFTTELPWIHCNNSWNSPNCSDAHPGDSSGDSSGLNDTFGTTPAAEYFERGVLHLHQSHGIDDLGPPRWQLTACLVLVIVLLYFSLWKGVKTSGKVVWITATMPYVVLTALLLRGVTLPGAIDGIRAYLSVDFYRLCEASVWIDAATQVCFSLGVGFGVLIAFSSYNKFTNNCYRDAIVTTSINSLTSFSSGFVVFSFLGYMAQKHSVPIGDVAKDGPGLIFIIYPEAIATLPLSSAWAVVFFIMLLTLGIDSAMGGMESVITGLIDEFQLLHRHRELFTLFIVLATFLLSLFCVTNGGIYVFTLLDHFAAGTSILFGVLIEAIGVAWFYGVGQFSDDIQQMTGQRPSLYWRLCWKLVSPCFLLFVVVVSIVTFRPPHYGAYIFPDWANALGWVIATSSMAMVPIYAAYKFCSLPGSFREKLAYAIAPEKDRELVDRGEVRQFTLRHWLKV
B1 showed a Km of 2.31 µM.
